Targets include REV7^WT-REV3(1871–2021) (human, UniProt Q9UI95 1-211; O60673 1871-2021); REV7^W171A (human, UniProt Q9UI95 1-211, W171A); REV7^Y63A (human, UniProt Q9UI95 1-211, Y63A); REV7^K129A (human, UniProt Q9UI95 1-211, K129A).
Test in all cases: ITC

REV7^K129A, sequence (Q9UI95 whole entry K129A): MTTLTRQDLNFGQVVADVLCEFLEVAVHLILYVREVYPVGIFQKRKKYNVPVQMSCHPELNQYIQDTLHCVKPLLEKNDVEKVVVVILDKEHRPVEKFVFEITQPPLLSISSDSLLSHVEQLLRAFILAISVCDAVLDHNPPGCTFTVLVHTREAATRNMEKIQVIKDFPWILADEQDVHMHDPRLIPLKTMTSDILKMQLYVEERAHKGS
REV7^Y63A, sequence (Q9UI95 whole entry Y63A): as the sequence (Q9UI95 whole entry K129A) above, with Y63A, A129K counted along it
REV7^W171A, sequence (Q9UI95 whole entry W171A): as the sequence (Q9UI95 whole entry K129A) above, with A129K, W171A counted along it
REV7^WT-REV3(1871–2021), sequence (Q9UI95 whole entry, chain 1 of 2): as the sequence (Q9UI95 whole entry K129A) above, with A129K counted along it
REV7^WT-REV3(1871–2021), sequence (O60673 1871-2021, chain 2 of 2): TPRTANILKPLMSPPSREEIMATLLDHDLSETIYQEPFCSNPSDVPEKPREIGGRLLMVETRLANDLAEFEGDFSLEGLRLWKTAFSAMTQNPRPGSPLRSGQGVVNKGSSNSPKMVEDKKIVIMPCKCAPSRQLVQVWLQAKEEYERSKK

B1: cREV1 CTD (chimeric REV1 CTD: POL κ RIR fused to the N-terminus of REV1 CTD) (other)
chain: SHKKSFFDKKRSERKWGLSSLQSDPAGCVRPPAPNLAGAVEFNDVKTLLREWITTISDPMEEDILQVVKYCTDLIEEKDLEKLDLVIKYMKRLMQQSVESVWNMAFDFILDNVQVVLQQTYGSTLKVT
With B1, the affinity with REV7^WT-REV3(1871–2021), expressed as Kd, was 1600 nM.

B2: SHLD3(1–82) with C-terminal His6-tag (domain or fragment)
chain: MTTEVILHYRPCESDPTQLPKIAEKAIQDFPTRPLSRFIPWFPYDGSKLPLRPKRSPPVISEEAAEDVKQYLTISEHDAKSH
For the molecule B2, the figures for the Kd with REV7^W171A, in the experiment with REV7^Y63A and with REV7^K129A were 170 nM, 160 nM and 4.8 nM, respectively.

B3: REV3(1847-1906) (domain or fragment)
chain: MLTPTPDSSPRSTSSPSQSKNGSFTPRTANILKPLMSPPSREEIMATLLDHDLSETIYQE
For B3, in the experiment with REV7^K129A, the Kd (commonly a measure of binding affinity in units of concentration) is 7.3 nM.

For the origin of these results see publication PMC7181697 (2020).
